Numbering of substitutions follows the chain as printed. Names may count otherwise.
B1: K146N, S173P, S175P, F180Y: TY145 protease (SEQ ID NO 3) variant with these substitutions (protein, listed as Bacillus sp.)
chain: AVPSTQTPWGIKSIYNDQSITKTTGGSGIKVAVLDTGVYTSHLDLAGSAEQCKDFTQSNPLVDGSCTDRQGHGTHVAGTVLAHGGSNGQGVYGVAPQAKLWAYKVLGDNGSGYSDDIAAAIRHVADEASRTGSKVVINMSLGSSANDSLIASAVDYAYGKGVLIVAAAGNSGPGPNTIGYPGGLVNAVAVAALENVQQNGTYRVADFSSRGNPATAGDYIIQERDIEVSAPGASVESTWYTGGYNTISGTSMATPHVAGLAAKIWSANTSLSHSQLRTELQNRAKVYDIKGGIGAGTGDDYASGFGYPRVK
B2: S27K, S173P, G174K, S175P, F180Y, L184Y, Q198E, N199K, T297P: TY145 protease (SEQ ID NO 3) variant with these substitutions (protein, listed as Bacillus sp.)
chain: B1 chain with S27K, N146K, G174K, L184Y, Q198E, N199K, T297P
B3: S27K, S173P, G174K, S175P, F180Y, L184Y, Q197K, Q198E, T297P: TY145 protease (SEQ ID NO 3) variant with these substitutions (protein, listed as Bacillus sp.)
chain: B1 chain with S27K, N146K, G174K, L184Y, Q197K, Q198E, T297P
B4: S27K, S173P, G174K, S175P, F180Y, L184F, Q198E, N199K, T297P: TY145 protease (SEQ ID NO 3) variant with these substitutions (protein, listed as Bacillus sp.)
chain: B1 chain with S27K, N146K, G174K, L184F, Q198E, N199K, T297P
B5: S27K, S171N, S173P, G174R, S175P, F180Y, L184Y, Q198E, T297P: TY145 protease (SEQ ID NO 3) variant with these substitutions (protein, listed as Bacillus sp.)
chain: B1 chain with S27K, N146K, S171N, G174R, L184Y, Q198E, T297P
B6: S27K, S171N, S173P, G174R, S175P, F180Y, Q198E, N199K, R224G, T297P: TY145 protease (SEQ ID NO 3) variant with these substitutions (protein, listed as Bacillus sp.)
chain: B1 chain with S27K, N146K, S171N, G174R, Q198E, N199K, R224G, T297P
B7: K146W, S173P, S175P, F180Y: TY145 protease (SEQ ID NO 3) variant with these substitutions (protein, listed as Bacillus sp.)
chain: B1 chain with N146W
B8: S27K, V162T, S173P, G174K, S175P, F180Y, L184F, Q197K, Q198E, T297P: TY145 protease (SEQ ID NO 3) variant with these substitutions (protein, listed as Bacillus sp.)
chain: B1 chain with S27K, N146K, V162T, G174K, L184F, Q197K, Q198E, T297P
B9: K146F, S173P, S175P, F180Y: TY145 protease (SEQ ID NO 3) variant with these substitutions (protein, listed as Bacillus sp.)
chain: B1 chain with N146F
B10: S173P, S175P, F180Y, L184W: TY145 protease (SEQ ID NO 3) variant with these substitutions (protein, listed as Bacillus sp.)
chain: B1 chain with N146K, L184W
B11: S173P, S175P, F180Y, L184Y: TY145 protease (SEQ ID NO 3) variant with these substitutions (protein, listed as Bacillus sp.)
chain: B1 chain with N146K, L184Y
B12: S173P, S175P, F180Y, L184D: TY145 protease (SEQ ID NO 3) variant with these substitutions (protein, listed as Bacillus sp.)
chain: B1 chain with N146K, L184D
B13: S173P, S175P, F180Y, R224S: TY145 protease (SEQ ID NO 3) variant with these substitutions (protein, listed as Bacillus sp.)
chain: B1 chain with N146K, R224S
B14: S173P, S175P, F180Y, R224G: TY145 protease (SEQ ID NO 3) variant with these substitutions (protein, listed as Bacillus sp.)
chain: B1 chain with N146K, R224G
B15: S27K, I121V, S171N, S173P, G174R, S175P, F180Y, Q198E, R224S, T297P: TY145 protease (SEQ ID NO 3) variant with these substitutions (protein, listed as Bacillus sp.)
chain: B1 chain with S27K, I121V, N146K, S171N, G174R, Q198E, R224S, T297P
B16: S27K, S173P, G174K, S175P, F180Y, L184F, Q198E, N199R, T297P: TY145 protease (SEQ ID NO 3) variant with these substitutions (protein, listed as Bacillus sp.)
chain: B1 chain with S27K, N146K, G174K, L184F, Q198E, N199R, T297P
B17: S173P, S175P, F180Y, R224D: TY145 protease (SEQ ID NO 3) variant with these substitutions (protein, listed as Bacillus sp.)
chain: B1 chain with N146K, R224D
B18: S27K, S171N, S173P, G174R, S175P, F180Y, L184W, Q198E, T297P: TY145 protease (SEQ ID NO 3) variant with these substitutions (protein, listed as Bacillus sp.)
chain: B1 chain with S27K, N146K, S171N, G174R, L184W, Q198E, T297P
B19: S27K, S171N, S173P, G174R, S175P, F180Y, G182A, L184F, Q198E, N199K, R224G, T297P: TY145 protease (SEQ ID NO 3) variant with these substitutions (protein, listed as Bacillus sp.)
chain: B1 chain with S27K, N146K, S171N, G174R, G182A, L184F, Q198E, N199K, R224G, T297P
B20: S27K, S171D, S173P, G174R, S175P, G182A, L184F, Q198E, N199K, R224G, T297P: TY145 protease (SEQ ID NO 3) variant with these substitutions (protein, listed as Bacillus sp.)
chain: AVPSTQTPWGIKSIYNDQSITKTTGGKGIKVAVLDTGVYTSHLDLAGSAEQCKDFTQSNPLVDGSCTDRQGHGTHVAGTVLAHGGSNGQGVYGVAPQAKLWAYKVLGDNGSGYSDDIAAAIRHVADEASRTGSKVVINMSLGSSAKDSLIASAVDYAYGKGVLIVAAAGNDGPRPNTIGFPAGFVNAVAVAALENVQEKGTYRVADFSSRGNPATAGDYIIQEGDIEVSAPGASVESTWYTGGYNTISGTSMATPHVAGLAAKIWSANTSLSHSQLRTELQNRAKVYDIKGGIGAGPGDDYASGFGYPRVK

Legend:
[1] = Determination of binding constants of inhibitor (NNIC) in Model B detergent, Suc-AAPF-pNA read-out; type: biochemical; details: Ki of variant with the mutation relative to variant without the mutation; for Inhibitor-binding relative Kimutation, inhibitor binding in Model B: <1.0 beneficial
Procedure: (§1) Purified protease variants are pre-diluted to approximately 0.2 mg/ml in dilution buffer. 40 μl diluted protease is then mixed with 40 μl inhibitor solution (Z-Gly-Ala-NHCH(CH2C6H4pOH)C(OH)(SO3Na)—H, wherein Z is benzyloxycarbonyl) or 40 μl 4-FPBA solution in the well of a 96 well microtiter plate (Nunc F 96-MTP). […] After 10 min mixing of protease and inhibitor at room temperature, 30 μl of the mixture is transferred to a microtiter plate (Nunc U96 PP 0.5 ml) with 270 μl Model B detergent in the wells resulting in inhibitor concentrations of 0-30 μM and 4-FPBA concentrations of 0-6000 μM. Protease, inhibitor and detergent is mixed for 1 hour using magnetic bars for 1 hour at room temperature to reach equilibrium. Then 20 μl is transferred to a microtiter plate (Nunc F 96-MTP). 100 μl substrate solution is added and after 5 sec mixing absorbance at 405 nm is measured every 20 sec for 5 min on a SpectraMax Plus reader. Slope from linear regression of initial increase in absorbance at 405 nm is used for calculation of apparent binding constants.
(§2) It is assumed that protease and inhibitor react according to the equation: E+I ? EI
(§3) Where E is the protease, I is the inhibitor and EI is the protease-inhibitor complex. […] The concentration of enzyme-inhibitor in the detergent solution is then given by:
(§4) where Etot is the total protease concentration ([Etot]=[E]+[EI]), Itot is the total inhibitor concentration ([Itot]=[I]+[EI]), and Ki is the equilibrium binding constant for the reaction. The measured slopes V are given by:
(§5) where V0 is the slope without inhibitor added. To calculate apparent binding constant Ki least square fitting of measured slopes at various inhibitor concentrations to this equation is performed with Ki and V0 as variables.
The Ki for the parent protease and for each variant was calculated as described above
(§6) Having the Ki for each variant, it is possible to calculate the effect of a single mutation, if data are available for at least two variants that differ only by that mutation. In this case, the relative Ki for the mutation is calculated:
(§7) [formula] A lower Ki is desirable, as a satisfactory inhibition can be obtained at a lower inhibitor concentration, so beneficial mutations have a relative Ki<1.0 The following table show such relative Kimutation. Each row show: • a mutation (column 1: “Mutation”) • a protease variant (relative to SEQ ID NO: 2) that comprise the mutation from column 1 (column 2: “Variant with the mutation”) • another protease variant (relative to SEQ ID NO: 2), that differs from the one in column 2 only by not having the mutation in column 1 (column 3: “Variant without the mutation”) • Relative Kimutation for the mutation in column 1, in the context of the variant in column 3, measured in Model B detergent (column 4: “inhibitor binding in Model B”) • Relative Kimutation for the mutation in column 1, in the context of the variant in column 3, measured in Tris buffer at pH 8 (column 5: “inhibitor binding in Tris buffer pH 8”)
Ki were calculated as shown in Example 3. The Improvement Factor (IF) or Relative

[2] = Determination of binding constants of inhibitor in Tris buffer at pH 8; type: biochemical; details: Ki of variant with the mutation relative to variant without the mutation
Procedure: as §1, §2, §3, §4, §5, §6, §7

Molecule	Inhibitor-binding relative Kimutation, inhibitor binding in Model B [1]	Inhibitor-binding relative Kimutation, inhibitor binding in Tris buffer pH 8 [2]	Inhibitor-binding relative Kimutation, inhibitor binding in Model B (Table 4b) [1]
B1	0.93	0.91	–
B2	0.21	–	–
B3	0.32	–	–
B4	0.36	–	–
B5	0.18	–	–
B6	0.74	–	–
B7	0.23	0.16	–
B8	–	–	0.17
B9	0.25	0.19	–
B10	0.50	–	–
B11	0.24	–	–
B12	0.37	–	–
B13	0.50	–	–
B14	0.47	–	–
B15	0.56	–	–
B16	0.22	–	–
B17	0.36	–	–
B18	0.57	–	–
B19	–	–	0.69
B20	–	–	0.49

— patent US10400230B2, “Protease variants and polynucleotides encoding same” (NOVOZYMES A/S, priority 2014, dated 2019)
